Assay results: patent publication US20260317428 (published 2026)

T1: human FGFR3b (alpha IIIb) (human, UniProt P22607)
T1 chain: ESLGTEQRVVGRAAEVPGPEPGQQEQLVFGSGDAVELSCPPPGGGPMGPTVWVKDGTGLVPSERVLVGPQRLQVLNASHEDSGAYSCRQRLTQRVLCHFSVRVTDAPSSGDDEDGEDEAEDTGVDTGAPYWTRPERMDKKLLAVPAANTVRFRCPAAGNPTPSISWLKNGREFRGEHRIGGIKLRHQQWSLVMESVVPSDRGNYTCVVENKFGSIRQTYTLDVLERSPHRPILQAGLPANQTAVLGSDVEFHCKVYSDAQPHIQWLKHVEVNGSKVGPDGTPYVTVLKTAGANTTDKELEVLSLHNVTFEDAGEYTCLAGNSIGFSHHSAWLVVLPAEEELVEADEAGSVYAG

T2: human FGFR3c (alpha IIIc) (human, UniProt P22607)
T2 chain: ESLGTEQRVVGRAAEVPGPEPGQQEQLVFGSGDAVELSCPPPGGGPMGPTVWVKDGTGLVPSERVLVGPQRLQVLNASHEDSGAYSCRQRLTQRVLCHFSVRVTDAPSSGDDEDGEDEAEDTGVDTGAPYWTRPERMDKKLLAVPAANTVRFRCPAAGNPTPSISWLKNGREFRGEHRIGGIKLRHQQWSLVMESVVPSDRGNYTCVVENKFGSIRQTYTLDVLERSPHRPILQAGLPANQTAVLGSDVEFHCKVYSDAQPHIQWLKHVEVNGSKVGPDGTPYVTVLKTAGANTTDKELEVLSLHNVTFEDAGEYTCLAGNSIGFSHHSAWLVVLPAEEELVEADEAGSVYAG

T3: human FGFR1b (alpha IIIb) (human, UniProt P11362)
T3 chain: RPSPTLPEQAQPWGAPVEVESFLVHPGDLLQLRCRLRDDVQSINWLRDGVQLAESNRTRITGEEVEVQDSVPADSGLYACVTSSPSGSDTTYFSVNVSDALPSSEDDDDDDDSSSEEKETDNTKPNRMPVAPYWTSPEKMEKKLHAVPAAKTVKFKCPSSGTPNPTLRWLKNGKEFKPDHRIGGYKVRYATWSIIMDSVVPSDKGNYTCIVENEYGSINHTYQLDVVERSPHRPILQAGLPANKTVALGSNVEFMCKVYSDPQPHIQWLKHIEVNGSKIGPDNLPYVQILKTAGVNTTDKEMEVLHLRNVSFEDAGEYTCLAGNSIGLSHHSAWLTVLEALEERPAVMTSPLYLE

T4: human FGFR1c (FGFR1/CD331) (human, UniProt P11362)
T4 chain: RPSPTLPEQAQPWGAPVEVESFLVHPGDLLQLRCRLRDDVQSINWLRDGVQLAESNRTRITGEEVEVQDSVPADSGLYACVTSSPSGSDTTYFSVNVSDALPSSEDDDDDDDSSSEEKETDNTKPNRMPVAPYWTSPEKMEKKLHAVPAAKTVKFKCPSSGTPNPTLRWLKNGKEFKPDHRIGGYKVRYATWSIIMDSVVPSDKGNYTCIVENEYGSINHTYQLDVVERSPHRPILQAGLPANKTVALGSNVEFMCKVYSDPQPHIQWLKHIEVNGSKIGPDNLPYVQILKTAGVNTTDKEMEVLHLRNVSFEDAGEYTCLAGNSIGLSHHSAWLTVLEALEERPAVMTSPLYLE

T5: human FGFR2b ECD (human, UniProt P21802)
T5 chain: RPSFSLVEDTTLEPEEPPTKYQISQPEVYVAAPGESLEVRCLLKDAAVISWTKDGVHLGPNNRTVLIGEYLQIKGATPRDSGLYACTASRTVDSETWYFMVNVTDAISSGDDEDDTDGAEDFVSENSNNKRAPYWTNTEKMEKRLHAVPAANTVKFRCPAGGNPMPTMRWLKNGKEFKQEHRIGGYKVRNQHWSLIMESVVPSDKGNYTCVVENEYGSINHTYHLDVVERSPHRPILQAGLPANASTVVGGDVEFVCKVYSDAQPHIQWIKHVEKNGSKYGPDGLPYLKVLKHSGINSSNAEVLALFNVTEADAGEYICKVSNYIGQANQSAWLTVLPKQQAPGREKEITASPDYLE


How the values were obtained:
[1] = biological target: T1, human FGFR3b (alpha IIIb); assay: ELISA
[2] = biological target: T2, human FGFR3c (alpha IIIc); assay: ELISA
[3] = biological target: T3, human FGFR1b (alpha IIIb); assay: ELISA
[4] = biological target: FGFR2IIIc on HEK293 cells (human, UniProt P21802); assay: FACS
human FGFR4 (CD334) = human FGFR4 (CD334) (human, UniProt P22455); assay: ELISA
[5] = biological target: human FGFR2c (alpha IIIc) (human, UniProt P21802); assay: ELISA
[6] = biological target: T4, human FGFR1c (FGFR1/CD331); assay: ELISA
human FGFR2b ECD = biological target: T5, human FGFR2b ECD; assay: BLI

human FGFR4 (CD334), sequence (P22455 22-369): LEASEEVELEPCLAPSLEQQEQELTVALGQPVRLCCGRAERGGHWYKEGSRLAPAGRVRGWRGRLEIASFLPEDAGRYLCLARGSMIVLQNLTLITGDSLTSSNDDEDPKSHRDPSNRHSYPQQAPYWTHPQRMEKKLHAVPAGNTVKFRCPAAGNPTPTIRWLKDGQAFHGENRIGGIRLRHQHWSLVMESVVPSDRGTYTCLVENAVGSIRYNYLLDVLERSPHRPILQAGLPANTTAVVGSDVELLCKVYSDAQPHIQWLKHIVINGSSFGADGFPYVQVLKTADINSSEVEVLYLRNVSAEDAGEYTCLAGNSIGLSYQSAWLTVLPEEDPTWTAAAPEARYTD

binding result [1]	binding result [2]	binding result [3]	binding result [4]	binding result (human FGFR4 (CD334))	binding result [5]	binding result [6]	Kd (human FGFR2b ECD) [nM]	Binder
no binding	no binding	no binding	no binding	no binding	no binding	no binding	–	mAb1 (antibody, V domains shown) VH: QAYLQQSGAELVRPGASVKMSCKASGYTFTSYNMHWVKQTPRQGLEWIGSIYPENGDTSYNQKFRDKATLTVDKSSSTAYMQLSSLTSEDSAVYFCARPFDYWGQGTTLTVSS VL: SIVMTQTPKFLPISAGDRVTMTCKASQSVGNNVAWYQQKPGQSPKLLIYYASNRYTGVPDRFTGSGSGTDFTFTISSVQVEDLAVYFCQQFYSSPYTFGSGTKLEIK
no binding	no binding	no binding	no binding	no binding	no binding	no binding	< 1	humAbA1 (antibody, V domains shown) VH: QVQLVQSGAEVKKPGASVKVSCKASGYTFTSYNMHWVRQAPGQGLEWMGSIYPENGDTSYNQKFQDRVTLTRDTSTSTVYMELSSLRSEDTAVYYCARPFDYWGQGTLVTVSS VL: DIQMTQSPSSLSASVGDRVTITCQASQSVGNNLAWYQQKPGKAPKLLIYYASNLYTGVPSRFSGSGSGTDFTFTISSLQPEDIATYYCQQFYSSPYTFGQGTKLEIKR
